Experimental data published in US6034053A, “EGF-isoflavone conjugates for the prevention of restenosis” (Wayne Hughes Institute, priority 1998, dated 2000).
“Also recorded” adds a separate entry of the source.

B1: EGF-Gen: rhEGF linked via the photoreactive cross-linker Sulfo-SANPAH to genistein at its C7 hydroxyl group (conjugate, UniProt P01133 23-1207, looked up)
Pro-epidermal growth factor: PQHWSCPEGTLAGNGNSTCVGPAPFLIFSHGNSIFRIDTEGTNYEQLVVDAGVSVIMDFHYNEKRIYWVDLERQLLQRVFLNGSRQERVCNIEKNVSGMAINWINEEVIWSNQQEGIITVTDMKGNNSHILLSALKYPANVAVDPVERFIFWSSEVAGSLYRADLDGVGVKALLETSEKITAVSLDVLDKRLFWIQYNREGSNSLICSCDYDGGSVHISKHPTQHNLFAMSLFGDRIFYSTWKMKTIWIANKHTGKDMVRINLHSSFVPLGELKVVHPLAQPKAEDDTWEPEQKLCKLRKGNCSSTVCGQDLQSHLCMCAEGYALSRDRKYCEDVNECAFWNHGCTLGCKNTPGSYYCTCPVGFVLLPDGKRCHQLVSCPRNVSECSHDCVLTSEGPLCFCPEGSVLERDGKTCSGCSSPDNGGCSQLCVPLSPVSWECDCFPGYDLQLDEKSCAASGPQPFLLFANSQDIRHMHFDGTDYGTLLSQQMGMVYALDHDPVENKIYFAHTALKWIERANMDGSQRERLIEEGVDVPEGLAVDWIGRRFYWTDRGKSLIGRSDLNGKRSKIITKENISQPRGIAVHPMAKRLFWTDTGINPRIESSSLQGLGRLVIASSDLIWPSGITIDFLTDKLYWCDAKQSVIEMANLDGSKRRRLTQNDVGHPFAVAVFEDYVWFSDWAMPSVMRVNKRTGKDRVRLQGSMLKPSSLVVVHPLAKPGADPCLYQNGGCEHICKKRLGTAWCSCREGFMKASDGKTCLALDGHQLLAGGEVDLKNQVTPLDILSKTRVSEDNITESQHMLVAEIMVSDQDDCAPVGCSMYARCISEGEDATCQCLKGFAGDGKLCSDIDECEMGVPVCPPASSKCINTEGGYVCRCSEGYQGDGIHCLDIDECQLGEHSCGENASCTNTEGGYTCMCAGRLSEPGLICPDSTPPPHLREDDHHYSVRNSDSECPLSHDGYCLHDGVCMYIEALDKYACNCVVGYIGERCQYRDLKWWELRHAGHGQQQKVIVVAVCVVVLVMLLLLSLWGAHYYRTQKLLSKNPKNPYEESSRDVRSRRPADTEDGMSSCPQPWFVVIKEHQDLKNGGQPVAGEDGQAADGSMQPTSWRQEPQLCGMGTEQGCWIPVSSDKGSCPQVMERSFHMPSYGTQTLEGGVEKPHSLLSANPLWQQRALDPPHQMELTQ
modifications: Pro-epidermal growth factor genistein via Sulfo-SANPAH cross-linker
B2: EGF: unconjugated EGF (modified EGF not conjugated to genistein) (protein, UniProt P01133 23-1207, looked up)
Pro-epidermal growth factor: B1 Pro-epidermal growth factor
modifications: Pro-epidermal growth factor

Experiments:
[1] = test system: vascular injury-induced neointimal hyperplasia; experiment: Murine restenosis model: photoactivated rose bengal vascular injury of the femoral artery, histomorphometric analysis; type: in vivo, C57B1/6 mice; details: for Stenosis Index (Mean ± SE), neointima/media ratio in areas of maximum neointimal hyperplasia, 2 weeks: 2 weeks after injury, EGF-Gen or unconjugated EGF 0.1 mg/kg/dose twice daily for 14 days; for Effect on neointimal hyperplasia / neointima formation (in words): injured femoral arteries, EGF-Gen at less than 5% of the highest nontoxic dose
Experimental: Three to four week old C57 B1/6 male mice (Taconic, Germantown, N.Y.) were housed in micro-isolator cages on a 12-hour day/night cycle and kept for 2 weeks on the Paigen's cocoa butter diet of 15.8% fat, 1.25% cholesterol and 0.5% sodium cholate (Harlan Teklad, Madison, Wis., U.S.A.) to induce high plasma cholesterol levels similar to those of patients with lipid disorders.
Mice were injected with 300 microliters of a 3 mg/ml photoactivated rose bengal solution (Aldrich, Milwaukee, Wis.) in sterile PBS via the tail vein and anesthetized with ketamine/xylazine solution (100 mg ketamine/kg and 5 […]). Photoactivation of rose bengal using percutaneous irradiation with a green light source (300 Watt Xenon arced lamp equipped with a 550 nanometer broad band interference filter, Oriel Scientific, Stratford, Conn.) was performed on the shaved left leg by placing a 3.2 mm glass fiber optic light guide directly into the left femoral vein/artery for 10 minutes. The unirradiated right femoral artery served as an internal control.
Following irradiation the mice were treated for either 14 days or 28 days with intraperitoneal injections of (1) EGF-Gen conjugate or unconjugated EGF (modified EGF not conjugated to genistein) at a dose level of 0. I mg/kg/dose once in the morning and once in the evening; or (2) 2 mg/kg/dose of unconjugated genistein or derivatives of 6,7-dimethoxyquinizalone dissolved in 10% DMSO once per day; or (3) with PBS.
At the times indicated, the animals were euthanized with ketamine/xylazine and perfused with PBS followed by 4% phosphate buffered formalin. PBS and formalin were pumped through the left ventricle of the heart and allowed to exit through a 3 mm incision through the interior wall of the right ventricle. The brain, thymus, heart, lung, liver, pancreas, kidney, spleen, intestine, stomach, muscle, skin adrenal, and testes were collected for pathological evaluation. For histopathological studies, tissues were fixed in 10% neutral buffered formalin, dehydrated and embedded in paraffin by routine methods. Tissue blocks containing the femoral artery/vein were excised and post-fixed in 4% phosphate buffered formalin overnight and processed for hemotoxylin and eosin (H&E) or Masson's trichrome staining. Glass slides were affixed with 6 micron tissue sections and were stained with hematoxylin and eosin or Masson's trichrome. Serial sections were examined for areas of maximum neointimal hyperplasia for which the ratios of neointima/media (stenosis index) were determined. This was necessary to compensate for angular differences among specimens. A Pixera camera (Pixera Corp., Calif., USA) was used for image capture and the NIH image 1.61(Rasband et al., 1995, Microbeam Analysis Soc. J. 4:137-149) program was used for histo-morphometric analysis.
All numeric data are shown as mean±SEM. Statistical analysis between groups was performed by Mann-Whitney t-test or Fisher's exact test using Instat, GraphPad Software, San Diego, Calif. Cumulative percentage plots were analyzed using Wilcoxon statistics by Statview, Abacus Concepts, Inc., Berkeley, Calif.
Vascular injury was induced in C57B1/6 mice as described for Example 2. Following irradiation, the mice were treated for either 14 days or 28 days with intraperitoneal injections of (1) EGF-Gen or unconjugated EGF (modified EGF not conjugated to genistein) at a dose level of 0.1 mg/kg/dose, once in the morning and once in the evening. For 14 day treatment, this dose represents a cumulative total dose level of 2.8 mg/kg and 2% of the highest nontoxic cumulative dosed tested in toxicity studies (Uckun et al., 1998, Clinical Cancer Res 5:1125-1134). For 28 day treatment, this dose represents a cumulative total dose level of 5.6 mg/kg and 4% of the highest nontoxic cumulative dosed tested in toxicity studies. Control animals were injected with 2 mg/kg/dose of unconjugated genistein or derivatives of 6, 7-dimethoxyquinizalone dissolved in 10% DMSO once per day or with PBS. […]

[2] = test system: vascular smooth muscle cells (VSMC); experiment: Migration of VSMC through Matrigel matrix-coated Boyden chambers; type: cell-based; details: for Effect on migration of VSMC (in words): EGF-gen 0.25, 0.5, 1 μg/ml or EGF 1 μg/ml, overnight
Experimental: Migration of VSMC through Matrigel™ matrix was performed as described above for Example 4.
FIGS. 7A-7E show the morphological features of migrated VSMC incubated with 0.25 μg/ml (FIG. 7B), 0.5 μg/ml (FIG. 7C), or 1 μg/ml (FIG. 7D) of EGF-gen or with 1 μg/ml EFG (FIG. 7E), overnight. The control (FIG. 7A) was untreated. The cells were then trypsinized and processed for the migration assay using Matrigel™ matrix-coated boyden chambers. Cells migrated through the matrigel and were counted and expressed as % of controls. FIG. 7F is a bar graph showing the dose dependent inhibition of migration by EGF-Gen.

[3] = test system: breast cancer cells; details: U.S. patent application Ser. No. 08/602,186; cited from earlier work

Molecule | Stenosis Index (Mean ± SE), neointima/media ratio in areas of maximum neointimal hyperplasia, 2 weeks ([1]; i.p.) | Mice with neointimal hyperplasia detected, 2 weeks after vascular injury ([1]; i.p. 0.1 mg/kg/dose twice daily, 0.1 mg/kg) | Stenosis Index (Mean ± SE), neointima/media ratio in areas of maximum neointimal hyperplasia, 4 weeks ([1]; 4 weeks after injury, i.p., EGF-Gen 0.1 mg/kg/dose twice daily for 28 days, Gen or quinazolines 2 mg/kg/dose once per day in 10% DMSO) | Mice with neointima detected, 4 weeks post injury ([1]; 4 weeks, i.p. 0.1 mg/kg/dose twice daily) | Effect on neointimal hyperplasia / neointima formation (in words) [1] | Effect on neointimal hyperplasia / neointima formation (in words) ([1]; listed as EGF-Genistein) | Effect on migration of VSMC (in words) [2] | Concentration giving complete cessation of in vitro migration of VSMC ([2]; overnight incubation, then Matrigel migration assay) [µg/mL] | Potency of the conjugate relative to unconjugated Genistein [3] [fold] | Stenosis Index (Mean ± SE), neointima/media ratio in areas of maximum neointimal hyperplasia, 2 weeks ([1]; i.p., listed as unconjugated EGF) | Mice with neointimal hyperplasia detected, 2 weeks after vascular injury ([1]; i.p. 0.1 mg/kg/dose twice daily)
B1 | 0.0±0.0 | none of the 5; also recorded: none of the five | 0.59±0.16 | all of the 24 | significantly reduced the magnitude of neointimal hyperplasia | suppressed migration of myofibroblasts into the mural thrombus and the formation of neointima | inhibited the migration of VSMC in a dose dependent fashion | 1 | 1000 | – | –
B2 | 0.63 ± 0.20 | – | – | – | ineffective | – | significantly promoted the migration | – | – | 0.63±0.20 | 6 of 8
